B1: Formin-binding protein 4, residues 593 to 636; numbered along this chain, Q8N3X1 (parent)
chain: EINATPKGWSCHWDRDHRRYFYVNEQSGESQWEFPDGEEEEEES
B2: Serine/threonine-protein kinase A-Raf, residues 21 to 89; numbered along this chain, P10398 (parent)
chain: VKVYLPNKQRTVVTVRDGMSVYDSLDKALKVRGLNQDCCVVYRLIKGRKTVTAWDTAIAPLDGEELIVE

Variants of: B1
Test: abundance fitness (aPCA) (normalised: wild type 0, dead -1); higher = more abundant; growth selection in yeast, the domain comes from the species named
Details: Homo sapiens

Abundance fitness, by site and new letter:
E1: R -0.186 | W -0.061 | K 0.036 | G -0.433 | N -0.304 | V -0.499 | A -0.14 | M -0.019 | D -0.154
A4: V -0.132 | N 0.2 | R -0.01 | M 0.036 | L 0.019 | G 0.033 | E 0.081 | P 0.086 | T -0.032 | K -0.008 | S -0.306 | Q -0.122
P6: G -0.587 | S -0.412
G8: E -0.438 | I -0.496 | C -0.471 | A -0.707
K7: L -0.299 | S -0.214 | G -0.577 | A -0.079 | D -0.123 | T -0.456 | F -0.303 | V -0.065 | R -0.074 | H 0.125
N3: H -0.128 | M 0.323 | V -0.093 | T -0.355 | Q 0.041 | L -0.239 | A -0.177 | R -0.169 | Y -0.062 | G -0.098 | S -0.072 | E 0.185 | C -0.304 | D 0.157
T5: F -0.306 | Q -0.358 | G -0.393 | V 0.065 | W -0.19 | C 0.052 | K 0.67 | S -0.81 | D -0.463 | R -0.345 | H -0.534 | A -0.387 | L 0.213 | M -0.054
I2: P -0.094 | E -0.173 | A -0.518 | L -0.208 | R -0.006 | W -0.283 | S 0.142 | Y -0.02 | V -0.204

Variants of: B2
Test: as above
Details: Homo sapiens

Abundance fitness of substitutions, site by site:
V68: I -0.127 | A -0.391
E64: S -0.112 | N -0.026 | G -0.25 | V -0.259 | L -0.01 | W -0.215 | C -0.571 | F -0.867 | K -0.295 | T -0.006 | M -0.085 | H -0.339 | A -0.206
G63: S -0.107 | W -0.78 | A -0.142 | D -0.187 | R -0.799 | T -0.128 | Q -0.466 | F -0.279 | Y -0.376 | H -0.63 | K -0.722 | V -0.097 | M -0.269 | E -0.486 | C -0.055 | P -0.533 | N -0.265
D62: T -0.111 | G -0.047 | N -0.051 | H -0.073 | I -0.015 | E -0.128 | L -0.078 | P -0.095 | F -0.608 | K -0.097 | M -0.062 | Y -0.311 | C 0.13 | A 0.004 | R -0.049 | S 0.036
E69: S -0.463 | V -0.43 | K -0.6 | F -0.884 | P -0.693 | N -0.777 | Y -0.809 | Q -0.6 | D -0.248 | L -0.889 | I -0.81 | M -0.682 | R -0.635 | A -0.497
L61: I -0.206 | W -0.297 | K -0.142 | P -0.631 | T -0.23 | V -0.112 | S -0.156 | G -0.176 | M 0.017 | Q -0.088 | H -0.312 | N -0.371 | R -0.108
I67: F 0.252
E65: Q -0.184 | Y -0.305 | G -0.294 | L -0.349 | T -0.01 | W -0.515 | C -0.122 | M -0.34 | F -0.607 | K -0.122 | I -0.088 | D -0.136 | P -0.26 | A -0.044 | S -0.124 | V -0.077 | R -0.385

Source: the Human Domainome abundance scans (Beltran et al. 2025)
